{"source": "paper PMC5244417", "about": "“Time-resolved neutron scattering provides new insight into protein substrate processing by a AAA+ unfoldase” (Scientific Reports, 2017)", "proteins": {"B1": {"name": "PAN (proteasome activating nucleotidase) unfoldase from Methanocaldococcus jannaschii (enzyme, UniProt Q58576 1-430, looked up)", "chain": "MVFEEFISTELKKEKKAFTEEFKEEKEINDNSNLKNDLLKEELQEKARIAELESRILKLELEKKELERENLQLMKENEILRRELDRMRVPPLIVGTVVDKVGERKVVVKSSTGPSFLVNVSHFVNPDDLAPGKRVCLNQQTLTVVDVLPENKDYRAKAMEVDERPNVRYEDIGGLEKQMQEIREVVELPLKHPELFEKVGIEPPKGILLYGPPGTGKTLLAKAVATETNATFIRVVGSELVKKFIGEGASLVKDIFKLAKEKAPSIIFIDEIDAIAAKRTDALTGGDREVQRTLMQLLAEMDGFDARGDVKIIGATNRPDILDPAILRPGRFDRIIEVPAPDEKGRLEILKIHTRKMNLAEDVNLEEIAKMTEGCVGAELKAICTEAGMNAIRELRDYVTMDDFRKAVEKIMEKKKVKVKEPAHLDVLYR", "notes": "Purified as a mixture of dodecamers and hexamers; Monodisperse hexamers were obtained after heating at 60 °C with ATP and MgCl2; Perdeuterated PAN (dPAN) was used for the SANS data on PAN; also called MjPAN; PAN complex"}}, "target": "the molecule itself", "test": "SEC; Superose 6 gel filtration of purified PAN, before heating", "note": "Values joined by “and” are separate entries in the source; they are usually repeats but may differ in a detail not shown here. Identical values can stand only once."}
{"protein": "B1", "values": [{"measurement": "stoichiometry N", "value": "12 and 6"}]}
